Test results reported in PMC7423924, “A fluorogenic cyclic peptide for imaging and quantification of drug-induced apoptosis” (Nature Communications, 2020).
“And” between values parts separate entries of the source, which are not always exact repeats. Equal values may be shown once.

System: neutrophils (myeloid)
Assay: Flow cytometry staining before and after induction of apoptosis, neutrophils
Assay type: cell-based, human
Settings: single replicates, listed as Ann V
Description: Fig. 2 Apo-15 binds to apoptotic cells of different origin in multiple environments. a Representative fluorescence confocal microscopy images (from three independent experiments) human apoptotic (yellow arrows) and viable (white arrows) cells from different lineages: BL-2 (lymphoid), neutrophils (myeloid), and primary airway epithelial cells (epithelial). Cells were incubated with Apo-15 (100 nM, green), AF647-Annexin V (5 nM, red), and Hoechst 33342 (7 μM, blue) for 10 min and imaged under a fluorescence confocal microscope (λexc.: 405, 488, 633 nm: λem.: 450, 525, 670 nm). Scale bars: 10 µm. b Divalent cation-independent binding of Apo-15 to apoptotic cells of different origin (top plots: lymphoid cells, bottom plots: myeloid cells). Mixtures of apoptotic (highlighted in green dots) and viable cells (highlighted in black dots) were stained with AF647-Annexin V (25 nM) and Apo-15 (100 nM) in the presence of 2 mM CaCl2 (left) or 2.5 mM EDTA (right). Representative histograms showing Apo-15 binding (x-axis) vs AF647-Annexin V binding (y-axis) acquired on 5L LSR flow cytometer (n = 5). c Cells were sorted on their Apo-15 positivity (green populations in panel b) or negativity (black populations in panel b). Gating strategy in Supplementary Fig. 7. Morphological analysis (four independent images from two independent experiments) of cytocentrifuge preparations of Apo-15-positive and Apo-15-negative cells under brightfield microscopy (scale bar: 10 µm). d Quantification of fluorescence staining of neutrophils (myeloid, n ≥ 5), BL-2 cells (lymphoid, n ≥ 3) and primary airway epithelial cells (epithelial, n = 5) before and after induction of apoptosis and upon treatment with Apo-15 and AF647-Annexin V. Data acquired on 5 L LSR flow cytometer and presented as mean values ± SEM. P values obtained from two-tailed t tests. Source data (in d) are provided as a Source data file. […]
Work with human peripheral blood leukocytes complied with all relevant ethical regulations and informed consent was obtained. […]

B1: Annexin V: fluorescently-labeled (AF647) annexin V, PS-binding protein (protein, UniProt P08758 2-320, looked up)
Annexin A5: AQVLRGTVTDFPGFDERADAETLRKAMKGLGTDEESILTLLTSRSNAQRQEISAAFKTLFGRDLLDDLKSELTGKFEKLIVALMKPSRLYDAYELKHALKGAGTNEKVLTEIIASRTPEELRAIKQVYEEEYGSSLEDDVVGDTSGYYQRMLVVLLQANRDPDAGIDEAQVEQDAQALFQAGELKWGTDEEKFITIFGTRSVSHLRKVFDKYMTISGFQIEETIDRETSGNLEQLLLAVVKSIRSIPAYLAETLYYAMKGAGTDDHTLIRVMVSRSEIDLFNIRKEFRKNFATSLYSMIKGDTSGDYKKALLLLCGEDD
modifications: AF647 label
B1 was tested, and the “Stained cells (flow cytometry)” value (neutrophils 0 h, before induction of apoptosis) was 2.6% and 3.7% and 2.0% and 1.4% and 1.1%, the “Stained cells (flow cytometry)” value (neutrophils 18 h, EDTA (2.5 mM)) was 0.0% and 0.5% and the “Stained cells (flow cytometry)” value (neutrophils after 18 h culture at 37 °C) was 51.9% and 32% and 59.2% and 56.9% and 54.7% and 56.2% and 68% and 42.1% and 61.5% and 44.8% and 31.8% and 64.6% and 60.9% and 43.7% and 65.3% and 57.6% and 48% and 40.7% and 35.2% and 65.8% and 72.2% and 52.7% and 70.5% and 46.6%.
